Test results from US20110081661A1, “Modified photoproteins with increased affinity for calcium and enhanced bioluminescence and uses thereof” (Millipore Corporation, priority 2009, published 2011).

Legend:
Format in all cases: cell-based
H1 histamine receptor [1] = target: T1, H1 histamine receptor (Homo sapiens, UniProt P35367); experiment: GPCR-mediated versus total bioluminescence in U-2OS cells (FIG. 4); settings: 10 μM histamine vs Triton X-100 with 1 mM calcium
T1 construct: expressed in transfected cells; host or cells: U-2OS
Experimental: In another experiment, the ability of the various photoproteins to detect calcium flux in live cells was assessed by adding varying concentrations of histamine to cells in order to activate the H1 histamine receptor followed by measurement of bioluminescence of the various photoproteins. U-2OS cells were transfected with a cDNA encoding H1 histamine receptor along with a cDNA encoding either a wild-type photoprotein or a modified photoprotein according to the invention, as described above in Example 2, except that Lipofectamine-2000 (INVITROGEN) was used as the transfection reagent. On the second day, the cells were trypsinized, counted, and plated in a white tissue-culture treated 96-well plate (COSTAR) at a density of about 50,000 cells/well in growth media consisting of DMEM containing 10% fetal bovine serum, non-essential amino acids, HEPES and penicillin/streptomycin. On the third day, the medium was removed and cells were washed once with 200 μl/well of HBSS/HEPES (containing Ca^2+). Cells were subsequently incubated with 5 μM coelenterazine in HBSS/HEPES (containing Ca^2+) in a volume of 200 μl/well, for 3-4 hours at room temperature in the dark. After incubation, the coelenterazine solution was removed and cells were washed and replaced with HBSS/HEPES buffer containing both Ca^2+ and Mg^2+. 50 μl/well of histamine at varying concentrations in HBSS/HEPES containing both Ca^2+ and Mg^2+ was added to the cells and total bioluminescence was measured at 20 seconds using a Victor2 luminometer.
In an exemplary experiment, U-2OS cells were transfected, plated and loaded with coelenterazine as described in Example 3. Luminescence induced by buffer alone or by 10 μM histamine was measured also as described in Example 3. Additionally, luminescence induced by addition of Triton X-100 in the presence of 1 mM calcium was also determined in order to assess the total amount of active photoprotein detectable using saturating calcium concentrations in cells.

[2] = Calcium EC50 of mitochondrially targeted photoproteins in HEK293T cells without cotransfected GPCR or G protein (Table II); settings: no cotransfected GPCR or G protein
Excerpt: (§1) In an exemplary experiment, HEK293T cells (ATCC-CRL-11268) were transiently co-transfected with 2 μgs of each of pcDNA3.1-H1 (containing the cDNA encoding the H1 histamine receptor) and pcDNA3.1 containing the cDNAs encoding wild type mitochondrial Clytin (referred to as mt-Clytin), modified mitochondrial Clytin having a lysine to aspartic acid mutation at position 168 (referred to as mt-Clytin K168D), modified mitochondrial Clytin having a lysine to glutamic acid mutation at position 168 (referred to as mt-Clytin K168E), wild-type mitochondrial Obelin (referred to as mt-Obelin) or wild type mitochondrial Aequorin (referred to as mt-Aequorin) using the Targefect-293 reagent (TARGETING SYSTEMS). 48 hours later, the cells were detached using Accutase (MILLIPORE), centrifuged, and resuspended in […] in FreeStyle293 media (INVITROGEN), for incubation for 3-4 hours at room temperature in the dark. After incubation, the cells were centrifuged and resuspended in HBSS/HEPES buffer without Ca^2+ at a density of 1×10^6 cells/ml. Next, 100 μl/well of cell suspension for each transfection were added by the use of a Victor2 luminometer plate reader (WALLAC, […]), to a 96-well plate containing 50 μL/well Triton X-100 in MOPS/KCl buffer containing 10 mM EGTA and a series of Ca^2+ concentrations, such that free calcium concentrations ranged from 17 nM to 39.6 μM, followed by for measurement of total bioluminescence at 20 seconds.
(§2) Signal to background ratio was calculated as the signal induced by maximal GIP (1 μM) divided by the signal induced by buffer alone. The EC50 value for calcium was determined as described above for FIG. 2 for mitochondrially targeted photoproteins transfected into HEK293T cells in the absence of a cotransfected GPCR or G protein. Affinity for calcium was correlated with the properties of the amino acid side chain at residue 168 of Clytin.

GIP Receptor = target: T2, GIP Receptor (Homo sapiens, UniProt P48546); experiment: GIP receptor-mediated bioluminescence in HEK293T cells with chimeric promiscuous G protein (FIG. 5, Table II); settings: for Max signal with GIP (RLU × 10^−5) / EC50 / signal intensities, GIP dose response (FIG. 5) / EC50 for GIP (nM): HEK293T cells; for Max signal with GIP (RLU × 10^−5) / EC50 / EC50 for GIP (nM): GIP Receptor + promiscuous G protein; for EC50 / EC50 for GIP (nM): luminescence vs GIP concentration; for % GPCR/total: signal induced by maximal GIP (1 μM) as percentage of signal induced by Triton X-100 with 1 mM Ca^2+; for Signal: background with GIP: signal induced by maximal GIP (1 μM) divided by signal induced by buffer alone; for signal intensities, GIP dose response (FIG. 5): GIP 10^−11 to 10^−6 M
T2 construct: host or cells: HEK293T
T2 sequence (P48546 22-466): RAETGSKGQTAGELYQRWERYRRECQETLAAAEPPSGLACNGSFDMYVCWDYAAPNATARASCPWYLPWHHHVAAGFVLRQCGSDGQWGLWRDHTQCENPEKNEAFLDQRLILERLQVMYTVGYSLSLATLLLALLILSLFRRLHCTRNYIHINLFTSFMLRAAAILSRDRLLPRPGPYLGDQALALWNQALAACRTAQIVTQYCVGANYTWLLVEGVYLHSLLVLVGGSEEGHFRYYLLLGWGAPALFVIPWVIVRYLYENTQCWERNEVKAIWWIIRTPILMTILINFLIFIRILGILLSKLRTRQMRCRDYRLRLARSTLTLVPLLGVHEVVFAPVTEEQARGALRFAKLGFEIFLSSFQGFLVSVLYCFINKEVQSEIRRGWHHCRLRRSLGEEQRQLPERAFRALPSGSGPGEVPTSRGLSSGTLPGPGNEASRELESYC
Experimental: However, coexpression of GIP receptor with a chimeric G protein containing sequences from Gαs and Gαq enable the GIP receptor to stimulate calcium flux.
The results of the dose response curve to varying concentrations of GIP with a subset of the photoproteins are summarized in FIG. 5.
as §2
The EC50 value for receptor-mediated calcium flux induced by the ligand was determined by plotting luminescence (Y-axis) versus ligand concentration applied to the cells (X-axis), and applying a sigmoidal dose-response curve-fitting algorithm (GraphPad Prism). GPCR-mediated signals of the various modified forms of Clytin having an amino acid substitution at position 168 were also related to the nature of the side chain. In addition, the subcellular location of the photoproteins (cytosolic vs mitochondrial) appeared to have an effect on GPCR-mediated signals. […] All of the other mitochondrially targeted mutants except for Clytin K168R and wild-type Clytin yielded results that were in the range of those observed for wt-Aequorin.

[3] = Calcium affinity of mitochondrial photoproteins, transient co-transfection with H1 histamine receptor in HEK293T cells (FIG. 2); settings: HEK293T cells co-transfected with H1 histamine receptor; Triton X-100, free calcium 17 nM to 39.6 μM; total bioluminescence at 20 seconds; read-out: EC50 value (affinity for Ca^2+)
Excerpt: (§3) Following the generation of modified forms of Clytin, the various variants were compared with wt-Aequorin for their affinity for intracellular calcium in transient transfection assays using co-transfection with the H1 histamine receptor (Genbank Accession No. NM_000861, obtained by PCR using H1-specific primers from a human brain cDNA library, forward primer 5′-[…] ATTCCTC-3′ (SEQ ID NO:60), reverse primer 5′-[…] AATTCTC-3′ (SEQ ID NO:61).
as §1

TRPA1 cation channel = target: T3, TRPA1 cation channel (Homo sapiens, UniProt O75762); experiment: Ion channel-mediated bioluminescence in HEK293 cells stably expressing TRPA1, induced by AITC; settings: HEK293 cells stably expressing TRPA1, AITC 10^−6 to 10^−3.5 M
T3 construct: host or cells: HEK293

H1 histamine receptor [4] = target: T1, H1 histamine receptor; experiment: H1 histamine receptor-mediated bioluminescence in U-2OS cells (FIG. 3); settings: total bioluminescence at 20 seconds
Excerpt: as §3
In another experiment, the ability of the various photoproteins to detect calcium flux in live cells was assessed by adding varying concentrations of histamine to cells in order to activate the H1 histamine receptor followed by measurement of bioluminescence of the various photoproteins. […] On the second day, the cells were trypsinized, counted, and plated in a white tissue-culture treated 96-well plate (COSTAR) at a density of about 50,000 cells/well in growth media consisting of DMEM containing 10% fetal bovine serum, non-essential amino acids, HEPES and penicillin/streptomycin. […] 50 μl/well of histamine at varying concentrations in HBSS/HEPES containing both Ca^2+ and Mg^2+ was added to the cells and total bioluminescence was measured at 20 seconds using a Victor2 luminometer.

[5] = listed as cytosolic Clytin K168D

T1 sequence (P35367 whole entry): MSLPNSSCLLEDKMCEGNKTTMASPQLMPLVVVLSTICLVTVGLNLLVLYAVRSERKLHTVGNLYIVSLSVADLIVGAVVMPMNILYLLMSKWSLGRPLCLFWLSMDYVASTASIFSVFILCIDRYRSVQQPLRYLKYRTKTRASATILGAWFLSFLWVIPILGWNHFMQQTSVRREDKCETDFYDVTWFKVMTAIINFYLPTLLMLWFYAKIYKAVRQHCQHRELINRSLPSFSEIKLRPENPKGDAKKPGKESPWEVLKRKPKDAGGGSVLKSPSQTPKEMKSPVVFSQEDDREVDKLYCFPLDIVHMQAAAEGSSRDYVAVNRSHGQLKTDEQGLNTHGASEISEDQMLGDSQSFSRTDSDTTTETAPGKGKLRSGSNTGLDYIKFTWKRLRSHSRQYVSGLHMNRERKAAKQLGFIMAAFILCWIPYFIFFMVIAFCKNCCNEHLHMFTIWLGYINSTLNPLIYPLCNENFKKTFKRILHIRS
T3 sequence (O75762 whole entry): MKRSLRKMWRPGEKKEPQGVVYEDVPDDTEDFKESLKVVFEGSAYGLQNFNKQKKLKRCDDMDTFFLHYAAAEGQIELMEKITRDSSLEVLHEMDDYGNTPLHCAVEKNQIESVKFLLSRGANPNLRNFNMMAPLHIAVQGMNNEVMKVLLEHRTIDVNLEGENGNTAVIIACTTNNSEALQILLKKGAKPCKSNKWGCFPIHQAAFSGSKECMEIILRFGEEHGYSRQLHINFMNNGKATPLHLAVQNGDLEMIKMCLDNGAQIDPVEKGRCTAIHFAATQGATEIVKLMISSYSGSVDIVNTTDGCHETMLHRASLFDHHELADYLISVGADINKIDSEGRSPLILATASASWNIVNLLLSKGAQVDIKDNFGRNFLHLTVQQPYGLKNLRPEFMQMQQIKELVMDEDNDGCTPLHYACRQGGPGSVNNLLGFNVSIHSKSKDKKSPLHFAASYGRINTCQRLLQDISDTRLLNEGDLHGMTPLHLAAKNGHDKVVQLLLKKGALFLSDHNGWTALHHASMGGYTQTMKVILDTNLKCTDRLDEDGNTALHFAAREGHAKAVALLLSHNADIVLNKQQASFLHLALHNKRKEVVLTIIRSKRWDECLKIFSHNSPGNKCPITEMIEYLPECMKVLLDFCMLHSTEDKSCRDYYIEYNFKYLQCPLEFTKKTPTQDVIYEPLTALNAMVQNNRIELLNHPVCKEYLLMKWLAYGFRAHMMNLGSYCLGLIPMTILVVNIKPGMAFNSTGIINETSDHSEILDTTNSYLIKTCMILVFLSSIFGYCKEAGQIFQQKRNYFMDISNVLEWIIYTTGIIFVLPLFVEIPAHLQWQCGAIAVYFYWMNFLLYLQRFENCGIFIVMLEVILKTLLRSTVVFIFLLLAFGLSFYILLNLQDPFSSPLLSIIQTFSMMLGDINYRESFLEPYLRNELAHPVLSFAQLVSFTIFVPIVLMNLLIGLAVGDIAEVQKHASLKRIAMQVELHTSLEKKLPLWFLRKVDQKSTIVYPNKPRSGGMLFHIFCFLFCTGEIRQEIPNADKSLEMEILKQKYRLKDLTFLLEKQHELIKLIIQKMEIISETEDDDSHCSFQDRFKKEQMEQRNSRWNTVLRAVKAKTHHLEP

Molecule	GPCR-mediated signal as % of the total signal (H1 histamine receptor [1])	EC50 [2] [nM]	Max signal with GIP (RLU × 10^−5) (GIP Receptor)	EC50 (GIP Receptor) [nM]	% GPCR/total (GIP Receptor) [%]	Signal: background with GIP (GIP Receptor)	EC50 [3] [nM]	signal intensities, GIP dose response (FIG. 5) (GIP Receptor)	Max signal with GIP (RLU × 10^−5) (GIP Receptor; listed as mt-Clytin K168D)	EC50 for GIP (nM) (GIP Receptor)	% GPCR/total (GIP Receptor; listed as mt-Clytin K168D)	Signal: background with GIP (GIP Receptor; listed as mt-Clytin K168D)	EC50 (AITC dose response) (TRPA1 cation channel)	signal (AITC-induced bioluminescence) (TRPA1 cation channel)	Max signal with GIP (RLU × 10^−5) (GIP Receptor; [5])	% GPCR/total (GIP Receptor; [5])	Signal: background with GIP (GIP Receptor; [5])	luminescence induced by histamine (H1 histamine receptor [4])
Mt-aequorin: Mitochondrial Wild-type Aequorin (mt-Aequorin), SEQ ID NO:6 (protein, listed as Aequorea victoria) MSVLTPLLLRGLTGSARRLPVPRAKIHSLPPEGKLTSDFDNPRWIGRHKHMFNFLDVNHNGKISLDEMVYKASDIVINNLGATPEQAKRHKDAVEAFFGGAGMKYGVETDWPAYIEGWKKLATDELEKYAKNEPTLIRIWGDALFDIVDKDQNGAITLDEWKAYTKAAGIIQSSEDCEETFRVCDIDESGQLDVDEMTRQHLGFWYTMDPACEKLYGGAVP	about 70%	235	4.68	11.3	23.9	84.7	269	–	–	–	–	–	–	–	–	–	–	–
Mt-clytin K168D: Mitochondrial K168D modified Clytin, SEQ ID NO:10 (protein) MSVLTPLLLRGLTGSARRLPVPRAKIHSLPPEGKLRPNFDNPKWVNRHKFMFNFLDINGDGKITLDEIVSKASDDICAKLGATPEQTKRHQDAVEAFFKKIGMDYGKEVEFPAFVDGWKELANYDLKLWSQNKKSLIRDWGEAVFDIFDKDGSGSISLDEWKAYGRISGICSSDEDAEKTFKHCDLDNSGDLDVDEMTRQHLGFWYTLDPNADGLYGNFVP	~100%	160	7.90	9.1	34.4	188.2	129	significantly higher signal intensities than any of the wild-type photoproteins	maximal signal	lowest EC50	highest % GPCR/total	highest signal to background ratio	–	–	–	–	–	–
Mt-clytin wt: Mitochondrial Wild-type Clytin (mt-Clytin), SEQ ID NO:5, with COX8 mitochondrial leader sequence (protein, listed as Clytia gregaria) MSVLTPLLLRGLTGSARRLPVPRAKIHSLPPEGKLRPNFDNPKWVNRHKFMFNFLDINGDGKITLDEIVSKASDDICAKLGATPEQTKRHQDAVEAFFKKIGMDYGKEVEFPAFVDGWKELANYDLKLWSQNKKSLIRDWGEAVFDIFDKDGSGSISLDEWKAYGRISGICSSDEDAEKTFKHCDLDNSGKLDVDEMTRQHLGFWYTLDPNADGLYGNFVP	about 30%	545	3.14	12.9	6.8	146.5	1350	–	–	–	–	–	–	–	–	–	–	–
Cyto-clytin K168D: K168D modified Clytin amino acid sequence, SEQ ID NO:9; cytosolic (protein) MADTASKYAVKLRPNFDNPKWVNRHKFMFNFLDINGDGKITLDEIVSKASDDICAKLGATPEQTKRHQDAVEAFFKKIGMDYGKEVEFPAFVDGWKELANYDLKLWSQNKKSLIRDWGEAVFDIFDKDGSGSISLDEWKAYGRISGICSSDEDAEKTFKHCDLDNSGDLDVDEMTRQHLGFWYTLDPNADGLYGNFVP	~100%	160	8.76	4.01	55.6	74.3	–	significantly higher signal intensities than any of the wild-type photoproteins	–	lowest EC50	–	–	lower EC50 than cytosolic wild-type Clytin	higher signal than cytosolic and mitochondrial Aequorin	highest maximal signal	highest % GPCR/total	highest signal to background ratio	much higher luminescence than the other forms of Clytin and Aequorin
